According to article PMC12102759 (2025):

B1: AMOTL2 peptide 66-81 (Angiomotin-like protein 2), 16-mer library wild type / TNKS ANK (TNKS 12 ANK repeats, residues 174-649) (parent complex)
chain 1: LQQATRQEPQGQEHQG
chain 2: TGVPAVSGALRELLEACRNGDVSRVKRLVDAANVNAKDMAGRKSSPLHFAAGFGRKDVVEHLLQMGANVHARDDGGLIPLHNACSFGHAEVVSLLLCQGADPNARDNWNYTPLHEAAIKGKIDVCIVLLQHGADPNIRNTDGKSALDLADPSAKAVLTGEYKKDELLEAARSGNEEKLMALLTPLNVNCHASDGRKSTPLHLAAGYNRVRIVQLLLQHGADVHAKDKGGLVPLHNACSYGHYEVTELLLKHGACVNAMDLWQFTPLHEAASKNRVEVCSLLLSHGADPTLVNCHGKSAVDMAPTPELRERLTYEFKGHSLLQAAREADLAKVKKTLALEIINFKQPQSHETALHCAVASLHPKRKQVTELLLRKGANVNEKNKDFMTPLHVAAERAHNDVMEVLHKHGAKMNALDTLGQTALHRAALAGHLQTCRLLLSYGSDPSIISLQGFTAAQMGNEAVQQILSESTPIRTSD

Variants of: B1
Assay: proteomic peptide phage display deep mutational scan (ProP-PD DMS): M13 P8 16-mer library selected against immobilised GST-tagged bait for four days (rounds), NGS of the eluted pools per day and pseudo-replica; bait immobilised on MaxiSorp plates (10 µg), library pre-cleared on GST, 2 h binding at 4 °C, five washes; one round per day, days 1-4; value from days 2 and 3

Row | Variant | screen value
1 | chain 1 Q3Y | 0.000305 average fractional NGS count over selection days 2 and 3 (reads of this peptide / all reads for the bait, averaged over …
2 | chain 1 Q3H | 0.00741 average fractional NGS count over selection days 2 and 3 (reads of this peptide / all reads for the bait, averaged over …
3 | chain 1 Q3V | 0.000386 average fractional NGS count over selection days 2 and 3 (reads of this peptide / all reads for the bait, averaged over …
4 | chain 1 Q3P | 0.000624 average fractional NGS count over selection days 2 and 3 (reads of this peptide / all reads for the bait, averaged over …
5 | chain 1 Q3W | 0.000779 average fractional NGS count over selection days 2 and 3 (reads of this peptide / all reads for the bait, averaged over …
6 | chain 1 Q3A | 0.0023 average fractional NGS count over selection days 2 and 3 (reads of this peptide / all reads for the bait, averaged over …
7 | chain 1 Q3T | 0.000102 average fractional NGS count over selection days 2 and 3 (reads of this peptide / all reads for the bait, averaged over …
8 | chain 1 P9T | 0.000277 average fractional NGS count over selection days 2 and 3 (reads of this peptide / all reads for the bait, averaged over …
9 | chain 1 A4V | 0.000321 average fractional NGS count over selection days 2 and 3 (reads of this peptide / all reads for the bait, averaged over …
10 | chain 1 A4F | 0.000957 average fractional NGS count over selection days 2 and 3 (reads of this peptide / all reads for the bait, averaged over …
11 | chain 1 A4Y | 0.00172 average fractional NGS count over selection days 2 and 3 (reads of this peptide / all reads for the bait, averaged over …
12 | chain 1 A4T | 0.000212 average fractional NGS count over selection days 2 and 3 (reads of this peptide / all reads for the bait, averaged over …
13 | chain 1 A4H | 0.000353 average fractional NGS count over selection days 2 and 3 (reads of this peptide / all reads for the bait, averaged over …
14 | chain 1 A4D | 0.000175 average fractional NGS count over selection days 2 and 3 (reads of this peptide / all reads for the bait, averaged over …
15 | chain 1 A4W | 0.000419 average fractional NGS count over selection days 2 and 3 (reads of this peptide / all reads for the bait, averaged over …
16 | chain 1 A4G | 0.00149 average fractional NGS count over selection days 2 and 3 (reads of this peptide / all reads for the bait, averaged over …
17 | chain 1 A4M | 0.00014 average fractional NGS count over selection days 2 and 3 (reads of this peptide / all reads for the bait, averaged over …
18 | chain 1 A4S | 0.000138 average fractional NGS count over selection days 2 and 3 (reads of this peptide / all reads for the bait, averaged over …
19 | chain 1 E13I | 0.000226 average fractional NGS count over selection days 2 and 3 (reads of this peptide / all reads for the bait, averaged over …
20 | chain 1 E13A | 0.000224 average fractional NGS count over selection days 2 and 3 (reads of this peptide / all reads for the bait, averaged over …
21 | chain 1 E13M | 0.000514 average fractional NGS count over selection days 2 and 3 (reads of this peptide / all reads for the bait, averaged over …
22 | chain 1 E13S | 0.000101 average fractional NGS count over selection days 2 and 3 (reads of this peptide / all reads for the bait, averaged over …
23 | chain 1 E13L | 0.000144 average fractional NGS count over selection days 2 and 3 (reads of this peptide / all reads for the bait, averaged over …
24 | chain 1 E13V | 0.00131 average fractional NGS count over selection days 2 and 3 (reads of this peptide / all reads for the bait, averaged over …
25 | chain 1 E13Q | 0.000235 average fractional NGS count over selection days 2 and 3 (reads of this peptide / all reads for the bait, averaged over …

Row | Variant | screen value
26 | chain 1 L1Y | 0.000392 average fractional NGS count over selection days 2 and 3 (reads of this peptide / all reads for the bait, averaged over …
27 | chain 1 L1D | 0.00194 average fractional NGS count over selection days 2 and 3 (reads of this peptide / all reads for the bait, averaged over …
28 | chain 1 L1G | 0.000254 average fractional NGS count over selection days 2 and 3 (reads of this peptide / all reads for the bait, averaged over …
29 | chain 1 L1H | 0.00276 average fractional NGS count over selection days 2 and 3 (reads of this peptide / all reads for the bait, averaged over …
30 | chain 1 L1Q | 0.00176 average fractional NGS count over selection days 2 and 3 (reads of this peptide / all reads for the bait, averaged over …
31 | chain 1 L1T | 0.000919 average fractional NGS count over selection days 2 and 3 (reads of this peptide / all reads for the bait, averaged over …
32 | chain 1 L1W | 0.000562 average fractional NGS count over selection days 2 and 3 (reads of this peptide / all reads for the bait, averaged over …
33 | chain 1 L1M | 0.000626 average fractional NGS count over selection days 2 and 3 (reads of this peptide / all reads for the bait, averaged over …
34 | chain 1 L1P | 0.000936 average fractional NGS count over selection days 2 and 3 (reads of this peptide / all reads for the bait, averaged over …
35 | chain 1 L1I | 0.000531 average fractional NGS count over selection days 2 and 3 (reads of this peptide / all reads for the bait, averaged over …
36 | chain 1 Q2I | 0.000122 average fractional NGS count over selection days 2 and 3 (reads of this peptide / all reads for the bait, averaged over …
37 | chain 1 Q2L | 0.00083 average fractional NGS count over selection days 2 and 3 (reads of this peptide / all reads for the bait, averaged over …
38 | chain 1 Q2Y | 0.000109 average fractional NGS count over selection days 2 and 3 (reads of this peptide / all reads for the bait, averaged over …
39 | chain 1 Q2S | 0.00082 average fractional NGS count over selection days 2 and 3 (reads of this peptide / all reads for the bait, averaged over …
40 | chain 1 Q2H | 0.00198 average fractional NGS count over selection days 2 and 3 (reads of this peptide / all reads for the bait, averaged over …
41 | chain 1 Q2A | 0.000379 average fractional NGS count over selection days 2 and 3 (reads of this peptide / all reads for the bait, averaged over …
42 | chain 1 Q2V | 0.000551 average fractional NGS count over selection days 2 and 3 (reads of this peptide / all reads for the bait, averaged over …
43 | chain 1 Q2P | 0.000458 average fractional NGS count over selection days 2 and 3 (reads of this peptide / all reads for the bait, averaged over …
44 | chain 1 Q2K | 0.000265 average fractional NGS count over selection days 2 and 3 (reads of this peptide / all reads for the bait, averaged over …
45 | chain 1 Q15M | 0.00112 average fractional NGS count over selection days 2 and 3 (reads of this peptide / all reads for the bait, averaged over …
46 | chain 1 Q15I | 0.00255 average fractional NGS count over selection days 2 and 3 (reads of this peptide / all reads for the bait, averaged over …
47 | chain 1 Q15L | 0.0017 average fractional NGS count over selection days 2 and 3 (reads of this peptide / all reads for the bait, averaged over …
48 | chain 1 Q15P | 0.000799 average fractional NGS count over selection days 2 and 3 (reads of this peptide / all reads for the bait, averaged over …
49 | chain 1 Q15W | 0.000288 average fractional NGS count over selection days 2 and 3 (reads of this peptide / all reads for the bait, averaged over …
50 | chain 1 Q15V | 0.000269 average fractional NGS count over selection days 2 and 3 (reads of this peptide / all reads for the bait, averaged over …

Row | Variant | screen value
51 | chain 1 Q15G | 0.000723 average fractional NGS count over selection days 2 and 3 (reads of this peptide / all reads for the bait, averaged over …
52 | chain 1 Q15N | 0.00022 average fractional NGS count over selection days 2 and 3 (reads of this peptide / all reads for the bait, averaged over …
53 | chain 1 Q15E | 0.000569 average fractional NGS count over selection days 2 and 3 (reads of this peptide / all reads for the bait, averaged over …
54 | chain 1 Q15A | 0.00403 average fractional NGS count over selection days 2 and 3 (reads of this peptide / all reads for the bait, averaged over …
55 | chain 1 Q15T | 0.000883 average fractional NGS count over selection days 2 and 3 (reads of this peptide / all reads for the bait, averaged over …
56 | chain 1 E8Q | 0.000434 average fractional NGS count over selection days 2 and 3 (reads of this peptide / all reads for the bait, averaged over …
57 | chain 1 E8M | 0.000135 average fractional NGS count over selection days 2 and 3 (reads of this peptide / all reads for the bait, averaged over …
58 | chain 1 E8A | 0.000174 average fractional NGS count over selection days 2 and 3 (reads of this peptide / all reads for the bait, averaged over …
59 | chain 1 E8V | 0.000436 average fractional NGS count over selection days 2 and 3 (reads of this peptide / all reads for the bait, averaged over …
60 | chain 1 E8T | 0.00026 average fractional NGS count over selection days 2 and 3 (reads of this peptide / all reads for the bait, averaged over …
61 | chain 1 E8D | 0.000313 average fractional NGS count over selection days 2 and 3 (reads of this peptide / all reads for the bait, averaged over …
62 | chain 1 E8P | 0.00018 average fractional NGS count over selection days 2 and 3 (reads of this peptide / all reads for the bait, averaged over …
63 | chain 1 E8F | 0.00124 average fractional NGS count over selection days 2 and 3 (reads of this peptide / all reads for the bait, averaged over …
64 | chain 1 E8W | 0.000174 average fractional NGS count over selection days 2 and 3 (reads of this peptide / all reads for the bait, averaged over …
65 | chain 1 E8L | 0.000201 average fractional NGS count over selection days 2 and 3 (reads of this peptide / all reads for the bait, averaged over …
66 | chain 1 T5D | 0.000166 average fractional NGS count over selection days 2 and 3 (reads of this peptide / all reads for the bait, averaged over …
67 | chain 1 T5M | 0.000134 average fractional NGS count over selection days 2 and 3 (reads of this peptide / all reads for the bait, averaged over …
68 | chain 1 T5H | 0.00114 average fractional NGS count over selection days 2 and 3 (reads of this peptide / all reads for the bait, averaged over …
69 | chain 1 T5V | 0.00996 average fractional NGS count over selection days 2 and 3 (reads of this peptide / all reads for the bait, averaged over …
70 | chain 1 T5F | 0.00053 average fractional NGS count over selection days 2 and 3 (reads of this peptide / all reads for the bait, averaged over …
71 | chain 1 T5G | 0.000124 average fractional NGS count over selection days 2 and 3 (reads of this peptide / all reads for the bait, averaged over …
72 | chain 1 T5Q | 0.00116 average fractional NGS count over selection days 2 and 3 (reads of this peptide / all reads for the bait, averaged over …
73 | chain 1 T5L | 0.00104 average fractional NGS count over selection days 2 and 3 (reads of this peptide / all reads for the bait, averaged over …
74 | chain 1 T5W | 0.000715 average fractional NGS count over selection days 2 and 3 (reads of this peptide / all reads for the bait, averaged over …
75 | chain 1 T5Y | 0.00023 average fractional NGS count over selection days 2 and 3 (reads of this peptide / all reads for the bait, averaged over …
